Assay results as given in paper PMC11821529.

Tests used:
[1] = target: Myc-tagged Rhinolophus affinis ISG15 S77C (Rhinolophus affinis); test: cross-linking
[2] = target: Myc-tagged wild-type Mops condylurus ISG15 (Mops condylurus); test: cross-linking

Substance | stoichiometry N [1] | stoichiometry N [2]
Myc-tagged Rhinolophus affinis ISG15 S77C (natural protein) | 2 | 
Myc-tagged wild-type Mops condylurus ISG15 (natural protein) |  | 2
